Reference: patent publication US20250109206A1
Residue numbers refer to the chain shown, from its start. Values belong to the binder of their own block, whether it stands above or below them.

What was measured:
[1] = biological target: human recombinant CD3 δε heterodimer (human) (UniProt P07766); assay: SPR (Biacore 8K), Fab captured, CD3 δε heterodimer as analyte
[2] = biological target: human recombinant CD3 δε heterodimer (human) (UniProt P07766); assay: SPR (Biacore), Fab captured on anti-human Fab chip, human CD3 δε heterodimer as analyte, 1:1 binding fit
[3] = biological target: cynomolgus monkey recombinant CD3 δε heterodimer (cynomolgus) (UniProt Q95LI5); assay: SPR (Biacore), Fab captured on anti-human Fab chip, cyno CD3 δε heterodimer as analyte, 1:1 binding fit
Chain of cynomolgus monkey recombinant CD3 δε heterodimer (cynomolgus) (Q95LI5 22-117, stated change not applied, chain 1 of 2): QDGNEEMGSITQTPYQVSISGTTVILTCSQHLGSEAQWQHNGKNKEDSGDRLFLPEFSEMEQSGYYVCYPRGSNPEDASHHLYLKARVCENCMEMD
Chain of cynomolgus monkey recombinant CD3 δε heterodimer (cynomolgus) (Q95LI8 22-105, stated change not applied, chain 2 of 2, further chain): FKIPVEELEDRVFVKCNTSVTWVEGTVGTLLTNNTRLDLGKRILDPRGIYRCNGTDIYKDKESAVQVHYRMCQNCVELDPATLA

Chain of human recombinant CD3 δε heterodimer (human) (P07766 23-126, stated change not applied, chain 1 of 2): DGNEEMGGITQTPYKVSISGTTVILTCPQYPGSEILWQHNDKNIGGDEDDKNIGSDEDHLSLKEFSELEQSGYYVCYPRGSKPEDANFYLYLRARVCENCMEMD
Chain of human recombinant CD3 δε heterodimer (human) (P04234 22-105, stated change not applied, chain 2 of 2, further chain): as the sequence (Q95LI8 22-105, stated change not applied, chain 2 of 2, further chain) above, with V5I, K15N, V20I, T32S, N33D, N34I, A64T, N74S, L83V counted along it

Kd [1]: 29 nM
kon [2]: 162000 M⁻¹ s⁻¹
Kd [3]: 28.4 nM
koff [3]: 0.00448 s⁻¹
kon [3]: 158000 M⁻¹ s⁻¹
B1: Anti-CD3 Fab-001 (Fab, V domains shown)
VH: EVQLVESGGGLVQPGGSLRLSCAASGFTFNTYAMNWVRQAPGKGLEWVARIRSKYNNYATYYADSVKDRFTISRDDSQSILYLQMNSLKTEDTAVYYCVRHGNFGNSYVSWFAYWGQGTLVTVSS
VL: QAVVTQEPSLTVSPGGTVTLTCRSSTGAVTTSNYANWVQQKPDHLPRALIGGTNKRAPGTPARFSGSLLGDKAALTLSGVQPEDEAEYYCALWYSNLWVFGGGTKLTVL

Kd [1]: 46 nM
kon [2]: 433000 M⁻¹ s⁻¹
Kd [3]: 71.8 nM
koff [3]: 0.0113 s⁻¹
kon [3]: 157000 M⁻¹ s⁻¹
B2: Anti-CD3 Fab-002 (Fab, V domains shown)
VH: B1 VH with A49G, D68G, Q78K, S79N, I80S, V99A
VL: B1 VL with T60V, L77I, V80A, E87I
